Test results reported in publication PMC10023573.

System: S9.6 anti-DNA:RNA hybrid monoclonal antibody, gold conjugate
Assay: immuno electron microscopy
Conditions: 10 ug/mL S9.6-gold, psoralen cross-linked, co-transcriptional R-loop (RNA hybrid), S9.6-gold 10 ug/mL with 80-100 ng pFC53, 1 h at 37 C, then 0.2% glutaraldehyde 15 min at 37 C, labeling buffer, salt and pH not given

Row | Substance | binding signal (% of molecules labeled) | binding signal (% of molecules labeled) (labels cluster in Airn region)
1 | pFC53 circular, T3-transcribed, R-loop in mAirn | 50 | –
2 | pFC53 linear, T3-transcribed, R-loop in mAirn | – | 50
